From patent US20210388105A1 (ELPISCIENCE SUZHOU BIOPHARMA, published 2021)

T1: mouse CD39 (full length, on CHOK1-mCD39 cells) (mouse, UniProt P55772 1-510)
T1 construct: whole, on cells
T1 sequence (looked up): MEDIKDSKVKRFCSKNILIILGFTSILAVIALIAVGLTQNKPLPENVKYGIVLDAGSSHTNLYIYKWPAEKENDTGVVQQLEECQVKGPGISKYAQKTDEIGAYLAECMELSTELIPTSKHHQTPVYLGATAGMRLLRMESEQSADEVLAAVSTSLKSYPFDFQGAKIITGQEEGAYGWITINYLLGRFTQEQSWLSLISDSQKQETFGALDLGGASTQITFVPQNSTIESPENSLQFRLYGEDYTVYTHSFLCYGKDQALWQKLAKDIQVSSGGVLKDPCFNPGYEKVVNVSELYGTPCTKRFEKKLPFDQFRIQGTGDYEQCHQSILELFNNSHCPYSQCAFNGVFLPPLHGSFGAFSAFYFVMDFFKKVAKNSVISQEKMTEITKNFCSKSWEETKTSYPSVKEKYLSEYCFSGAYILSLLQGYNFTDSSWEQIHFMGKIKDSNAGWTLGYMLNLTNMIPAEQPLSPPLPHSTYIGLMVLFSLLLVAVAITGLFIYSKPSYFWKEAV

T2: human CD39 (full length, on cells) (human, UniProt P49961 1-510)
T2 construct: Recombinant on CHOK1-hCD39 cells or natural on SK-MEL-28, SK-MEL-5 and MOLP-8 cells; the cell line is named under assay; also called hCD39; ENTPD1
T2 sequence: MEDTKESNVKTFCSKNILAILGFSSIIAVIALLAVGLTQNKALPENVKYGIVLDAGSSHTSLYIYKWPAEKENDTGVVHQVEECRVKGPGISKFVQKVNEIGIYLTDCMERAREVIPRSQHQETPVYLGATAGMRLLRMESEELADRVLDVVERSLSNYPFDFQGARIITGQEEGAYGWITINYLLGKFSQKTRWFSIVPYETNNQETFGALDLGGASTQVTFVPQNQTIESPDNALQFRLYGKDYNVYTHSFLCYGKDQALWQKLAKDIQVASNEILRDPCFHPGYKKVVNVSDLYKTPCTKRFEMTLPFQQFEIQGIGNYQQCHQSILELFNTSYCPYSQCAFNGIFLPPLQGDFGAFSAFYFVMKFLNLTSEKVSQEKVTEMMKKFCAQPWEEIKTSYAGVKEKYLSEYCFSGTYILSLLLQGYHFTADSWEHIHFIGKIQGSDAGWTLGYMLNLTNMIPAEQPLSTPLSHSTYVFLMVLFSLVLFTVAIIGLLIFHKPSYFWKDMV

B1: Antibody 9-8B (antibody, V domains shown)
VH: QIQLVQSGPELKKPGETVKISCKASGYTFTHYGMNWVKQAPGKGLKWMGWINTYTGELTYADDFKGRFAFSLETSASTAYLQINNLKNEDTATYFCARRAYYRYDYVMDYWGQGTSVTVSS
VL: DIVMTQSQKFMSTSVGDRVSVTCKASHNVGTNVAWYQQKPGQSPKALIYSASYRYSGVPGRFTGSGSGTDFTLTISNVQSEDLAEYFCHQYNNYPYTFGGGTKLEIK
B2: hu23.H5L5 (antibody, V domains shown)
VH: QVQLVQSGAEVKKPGASVKVSCKASGYNLKDTFLHWVRQAPGQGLEWMGRIDPANGNIKYDPKFQGRVTITADTSANTAYMELISLRSEDTAVYYCANSPYYYGSGYRIFDVWGQGTTVTVSS
VL: QIVLTQSPATLSLSPGERATLSCSAFSSVNYMHWYQQKPGQAPRLLIYTTSNLASGIPTRFSGSGSGTSYTLTISSLEPEDFAVYYCQQRSTYPFTFGQGTKLEIK
notes: humanized c23
B3: mAb14 (antibody, V domains shown)
VH: EVKLEESGGGLVQPGGSMKLSCVASGFTFSKYWMNWVRQSPEKGLEWVAEIRLKSNKYGTHYAESVKGRFTISRDDSKNNVYLQMNNLRPEDTGIYYCTTQLDLYWFFDVWGAGTTVTVSS
VL: DIVMTQSPAILSVTPGDRVSLSCRASQSISDYLHWYQQKSHESPRLLIKYASQSISGIPSRFSGSGSGSNFTLSINSVEPEDVGVYFCQNGHSLPLTFGAGTKLELR
notes: mouse hybridoma antibody
B4: Antibody T895 (antibody, V domains shown)
VH: EVQLQQSGPELVKPGASVKMSCKASGYTFTDYNMHWVKQSHGRTLEWIGYIVPLNGGSTFNQKFKGRATLTVNTSSRTAYMELRSLTSEDSAAYYCARGGTRFAYWGQGTLVTVSA
VL: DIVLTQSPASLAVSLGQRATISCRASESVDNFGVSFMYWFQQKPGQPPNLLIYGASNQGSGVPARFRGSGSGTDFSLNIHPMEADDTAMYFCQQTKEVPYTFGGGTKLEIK
notes: also called 31895

Columns and labels:
[1] = molecular target: T1, mouse CD39 (full length, on CHOK1-mCD39 …); assay: FACS, CHOK1-mCD39 cells
Source text: FACS were used to determine binding of the antibodies to cell lines expressing CD39 naturally (SK-MEL-28) or recombinantly (CHOK1-hCD39, CHOK1-cynoCD39, and CHOK1-mCD39), or with cells lacking CD39 expression (CHOK1-blank) as a negative control.
CHOK1-hCD39, CHOK1-cCD39, CHOK1-mCD39 and CHOK1-blank cells were maintained in culture medium according to ATCC procedure. Cells were collected and re-suspended in blocking buffer at a density of 3×10⁶ cells/ml. Cells were transferred to 96 well FACS plates at 100 μl/well (3×10⁵ cells/well), the plates were centrifuged and washed twice with FACS buffer (PBS, 1% FBS, 0.05% Tween-20). 4-folds serial dilution of anti-CD39 antibodies were prepared in FACS buffer starting from 30 μg/ml. Reference antibody 9-8B and mouse/human control IgG were used as positive and negative controls, respectively. Cells were re-suspended in 100 μL/well diluted antibodies, and the plates were incubated at 4° C. for 60 min. […] The plates were washed with FACS buffer, and cells were re-suspended in 100 μL/well of PBS. Cells were then analyzed with FACSVerse™ and mean fluorescence intensity were determined. Full binding curves were generated on the CD39 expressing cells by testing a range of antibody concentrations. Apparent affinity was determined for each antibody using Prism software.

[2] = molecular target: T2, human CD39 (full length, on cells); assay: FACS competition on CHOK1-hCD39; competitor mAb23-Alexa488
Experimental: Anti-CD39 antibodies were labeled using Alex488 labeling kit and were diluted in a series of concentrations, before mixing with CHOK1-hCD39 cells to test binding EC₅₀using FACS. The non-labeled antibodies were tested for their blocking efficacy to the labelled ones. Briefly, mononuclear CHOK1-hCD39 cells were prepared to 2×10⁶/ml and plated into 96 well at 50 μl/well, then mixed with antibodies gradients to final volume at 100 μl, and then equal volume of Alex488 label antibodies were added at two folds EC80 concentration. 96 well plates were incubated at 4° C. for 1 hour, and spun down and washed 3 times with 200 μl FACS buffer. The FACS analysis was performed on FACScelesta machine and data was analyzed by Flowjo software. The blocking percentages were calculated and those having above 80% competition rate were allocated into one epitope group, compared with the non-competing well (Alex488 labeled antibody only).
Based on the competition results, the 4 anti-CD39 hybridoma antibodies (mAb14, mAb19, mAb21, mAb23) can be grouped into 4 different epitope groups, as shown in Table 11.

[3] = molecular target: T2, human CD39 (full length, on cells); assay: FACS, SK-MEL-28 cells
Experimental: Similarly, human CD39 expressing cells SK-MEL-5, SK-MEL-28 or MOLP-8, were incubated with a gradient concentration of anti-CD39 antibodies for 30 minutes at 4° C. Cells were washed 3 times using FACS buffer and next incubated with fluorescence labelled secondary antibody (goat-anti-mouse IgG or goat anti-human IgG) for 30 minutes at 4° C. Cells were washed 3 times and then re-suspended in FACS buffer and analyzed by flow cytometry analysis on BD Celesta. Data plotted and analyzed using GraphPad Prism 8.02.
Binding affinity of the humanized antibodies hu23.H5L5 and hu14.H1L1 were tested on different cells by FACS following the similar method as described in Example 3.2.
Reference antibodies T895 and 1394 were tested in parallel as control antibodies. As shown in FIG. 12 and summarized in Table 23, both antibodies hu23.H5L5 and hu14.H1L1 bound to human and cynomolgus CD39 expressing cells in a dose-dependent manner and with similar affinity by EC₅₀ at a sub-nanomolar or nanomolar level. Neither of them recognized mouse CD39 in the FACS study. Maximum signal (mean fluorescence intensity, MFI) differed between cells for each antibody may result from their different expression level.

[4] = molecular target: T2, human CD39 (full length, on cells); assay: cell-based or functional assay

Row | Binder | binding result [1] | blocking percentage [2] [%] | EC50 [3] [nM] | ATPase activity inhibition IC50 on MOLP-8 cells [4] [nM] | ATPase activity inhibition IC50 on SK-MEL-5 cells [4] [nM]
1 | B1 | no binding (tested: 30 µg/ml highest concentration) | 100 |  |  | 
2 | B2 |  |  | 0.99 | 0.33 | 0.07
3 | B3 | no binding (tested: 30 µg/ml highest concentration) | -26 |  |  | 
4 | B4 |  |  | 0.36 | 0.51 | 0.09
